Measured values reported in PMC3903436.

How the values were obtained:
[1] = target: MUC16 (CA125), native, membrane-bound on cancer cells (human (endogenous in OVCAR3 and HeLa)) (UniProt Q8WXI7)
[2] = target: MUC16 (CA125), native, membrane-bound on cancer cells (human (endogenous in OVCAR3 and HeLa)) (UniProt Q8WXI7); remark: listed apart in the source
[3] = target: MUC16 (CA125), native, membrane-bound on cancer cells (human (endogenous in OVCAR3 and HeLa)) (UniProt Q8WXI7); assay: flow cytometry on cells; OVCAR3 cells in suspension incubated with HEK293T-derived culture supernatant containing soluble mesothelin; bound mesothelin detected with anti-FLAG mAb M2 and FITC-conjugated secondary Ab; culture medium alone as negative control

| reduction of the luciferase signal (tumor burden) of intraperitoneal OVCAR3 xenografts in NOD/SCID mice at 7 days of i.p. treatment with Meso-TR3 (control and TR3 groups did not respond) [1] | share of MUC16-positive cells in the HeLa cell pool after Meso-TR3 treatment, by flow cytometry (80% to 54%; non-targeted TR3 did not shift the ratio) [2] | percent of cells positive for bound mesothelin (FLAG epitope tag) [3] | Substance |
| --- | --- | --- | --- |
| 600 fold | > 30% |  | Meso-TR3 (mesothelin-TR3 fusion protein) (from UniProt P50591 39-281; P50591 39-281; P50591 39-281) |
|  |  | 100% | soluble mesothelin (FLAG tagged, GPI anchor-deleted mature form) (ligand) |
